{"source": "patent US9744220B2", "about": "“Compositions and methods for treating inflammatory diseases” (priority 2013, dated 2017)", "molecules": {"B1": {"name": "sPDNF: N-terminal short-form of T cruzi PDNF that contains Trk-binding sites, recombinant; amino acids 1-588 of SEQ ID NO: 2; JR-100 is the commercial name (protein, listed as Trypanosoma cruzi)", "chain": "MGKTVVVASRMFWLMFFVPLLLAICPSEPAYALAPGSSRVELFKRKNSTVPFEDKAGKVTERVVHSFRLPALVNVDGVMVAIADARYDTSNDNSLIDTVAKYSVDDGETWETQIAIKNSRVSSVSRVVDPTVIVKGNKLYVLVGSYYSSRSYWSSHGDARDWDILLAVGEVTKSTAGGKITASIKWGSPVSLKKFFPAEMEGMHTNQFLGGAGVAIVASNGNLVYPVQVTNKKKQVFSKIFYSEDDGKTWKFGKGRSDFGCSEPVALEWEGKLIINTRVDWKRRLVYESSDMEKPWVEAVGTVSRVWGPSPKSNQPGSQSSFTAVTIEGMRVMLFTHPLNFKGRWLRDRLNLWLTDNQRIYNVGQVSIGDENSAYSSVLYKDDKLYCLHEINTDEVYSLVFARLVGELRIIKSVLRSWKNWDSHLSSICTPADPAASSSESGCGPAVTTVGLVGFLSGNASQNVWEDAYRCVNASTANAERVRNGLKFAGVGGGALWPVSQQGQNQRYRFANHAFTLVASVTIHEAPRAASPLLGASLDSSGGKKLLGLSYDEKHQWQPIYGSTPVTPTGSWETGKRYHLVLTMANKI"}}, "key": {"MCP-1 and FKN [1]": {"tested_on": "MCP-1 and FKN", "experiment": "Single dose IV sPDNF into naive wild type C57BL/6 mice, MCP-1 and FKN by real time PCR", "type": "in vivo", "method": "Wild type C57BL/6 mice were used in the results depicted in FIGS. 11A-11D. FIG. 11A is a graph depicting that a single dose of intravenous (IV) sPDNF increased MCP-1 and FKN transcripts in the heart in a pulse-like response. Groups of mice (2 per group) were injected with vehicle (Veh) or sPDNF (150 μg/mouse) and sacrificed at 3, 6, 9 and 12 hr post-injection, and cardiac MCP-1 and FKN transcripts were quantified by qPCR. Points represent fold change of the mean±SD relative to Veh injected mice; *P<0.05 and **P<0.01. Experiment repeated three times with similar results; liver also responded with similar pulselike kinetics. FIG. 11B is a graph depicting that organ distribution of MCP-1 increased following a single IV dose of sPDNF. Experimental design analogous to that summarized above. FIG. 11C is a graph showing that a single IV dose of sPDNF augments MCP-1 and FKN transcripts dose-dependently in the heart. FIG. 11D is a graph showing that a single IV dose of sPDNF augments MCP-1 and FKN transcripts dose-dependently in the liver. For the results depicted in FIGS. 11C and 11D, groups of three mice were injected with various doses of sPDNF, and heart and liver harvested 3 hr post-injection to quantify MCP-1 and FKN by qPCR. The results are plotted as a composite of three distinct experiments. […] For the results depicted in FIGS. 11E-11H, TLR-deficient MyD88^−/− mice (two per group) were injected IV with vehicle (PBS) or sPDNF (100 μg per mouse), sacrificed 3 hr post-injection. FIG. 11E is a graph showing MCP-1 expression in the heart of MyD88^−/− mice injected with sPDNF. FIG. 11F is a graph showing FKN expression in the heart of MyD88^−/− mice injected with sPDNF. FIG. 11G is a graph showing MCP-1 expression in the liver of MyD88^−/− mice injected with sPDNF. FIG. 11H is a graph showing FKN expression in the liver of MyD88^−/− mice injected with sPDNF.\nGroups of naive wild type C57BL/6 mice were injected with vehicle (PBS) or a single dose of IV sPDNF. Mice were sacrificed at various timepoints post-injection, and heart MCP-1 and FKN expression measured by real time PCR. […] The agonist effect of IV sPDNF was screened in various organs using optimum time response (3 hr post-injection) using the same dose as in FIG. 11A. […] Organ distribution of MCP-1 expression in response to IV sPDNF was similar to that of FKN. Without being bound to a particular theory, the selective increase of MCP-1 and FKN in various organs may reflect the uneven expression of PDNF receptors TrkA and TrkC in neural and non-neural tissues (22, 50).\nRNA was isolated from Trizol lysates of cell monolayers or liquid nitrogen snap frozen tissue samples dissociated by a Tissue-Tearor mechanical homogenizer (Biospec Products, Inc.). cDNA was synthesized using the Quantitect Reverse Transcription kit (Qiagen) according to manufacturer's instructions. Chemokine and chemokine receptor transcripts were amplified using specific primers and normalized to HPRT using SYBR Green (Qiagen), and, if needed, expressed relative to control-unstimulated cells. The following primers were used: […]\nsPDNF was diluted in sterile endotoxin-free PBS (200 μl) and injected via the tail vein into 6-8 week old female C57BL/6 mice. Mice receiving single IV injections of 150 μg sPDNF per mouse were sacrificed at 3, 6, 9, and 12 hr post-injection, or various doses of sPDNF (100 ng-150 μg) and sacrificed 3 hr post-injection. Mice receiving multiple injections of sPDNF or PBS vehicle control (0, 3, and 24 hr, 100 μg per injection) were sacrificed 24 hr after the last injection (i.e., 48 hr after the first injection). Mice were perfused with PBS and organs harvested as described above."}, "MCP-1 and FKN [2]": {"tested_on": "MCP-1 and FKN", "experiment": "IV sPDNF into TLR-deficient MyD88-/- mice, MCP-1 and FKN", "type": "in vivo", "details": "IV 100 μg per mouse, 3 hr post-injection", "method": "Wild type C57BL/6 mice were used in the results depicted in FIGS. 11A-11D. FIG. 11A is a graph depicting that a single dose of intravenous (IV) sPDNF increased MCP-1 and FKN transcripts in the heart in a pulse-like response. Groups of mice (2 per group) were injected with vehicle (Veh) or sPDNF (150 μg/mouse) and sacrificed at 3, 6, 9 and 12 hr post-injection, and cardiac MCP-1 and FKN transcripts were quantified by qPCR. Points represent fold change of the mean±SD relative to Veh injected mice; *P<0.05 and **P<0.01. Experiment repeated three times with similar results; liver also responded with similar pulselike kinetics. FIG. 11B is a graph depicting that organ distribution of MCP-1 increased following a single IV dose of sPDNF. Experimental design analogous to that summarized above. FIG. 11C is a graph showing that a single IV dose of sPDNF augments MCP-1 and FKN transcripts dose-dependently in the heart. […] For the results depicted in FIGS. 11C and 11D, groups of three mice were injected with various doses of sPDNF, and heart and liver harvested 3 hr post-injection to quantify MCP-1 and FKN by qPCR. […]\nTo ensure that the response observed in wild type mice was not due to TLR activation, MCP-1 and FKN response to IV sPDNF was assessed in TLR-deficient MyD88^−/− mice (23)."}, "[3]": {"details": "IV, naive mice; cited from earlier work"}, "[4]": {"details": "single IV dose 150 μg/mouse, pulse-like kinetics"}, "[5]": {"details": "various single IV doses, 3 hr post-injection"}}}
{"molecule": "B1", "values": [{"measurement": "cardiac FKN transcripts", "setting": "MCP-1 and FKN [1]; [4]", "result": "significantly increased"}, {"measurement": "cardiac MCP-1 transcripts", "setting": "MCP-1 and FKN [1]; [4]", "result": "significantly increased"}, {"measurement": "expression of MCP-1 in the heart, liver and spleen", "setting": "MCP-1 and FKN [1]; single IV dose, 3 hr post-injection, liver most robust", "result": "increased expression"}, {"measurement": "time of peak of cardiac FKN", "setting": "MCP-1 and FKN [1]; single IV dose, post-injection", "result": 3, "unit": "h"}, {"measurement": "time of peak of cardiac MCP-1", "setting": "MCP-1 and FKN [1]; single IV dose, post-injection", "result": 3, "unit": "h"}, {"measurement": "increased expression of FKN in the heart", "setting": "MCP-1 and FKN [1]; [5]", "result": "dose-dependent"}, {"measurement": "increased expression of MCP-1 in the heart", "setting": "MCP-1 and FKN [1]; [5]", "result": "dose-dependent"}, {"measurement": "increased expression of MCP-1 in the liver", "setting": "MCP-1 and FKN [1]; [5]", "result": "dose-dependent"}, {"measurement": "expression of FKN in the heart and liver", "setting": "MCP-1 and FKN [2]", "result": "sharp increase"}, {"measurement": "expression of MCP-1 in the heart and liver", "setting": "MCP-1 and FKN [2]", "result": "sharp increase"}, {"measurement": "half-life in the blood", "setting": "[3]", "result": "~15", "unit": "min"}, {"measurement": "time of peak in the myocardium post-injection", "setting": "[3]", "result": "~15", "unit": "min"}]}
